Source: publication PMC9822811 (2023)

Biological target: recombinant SARS-CoV-2 RBD of original WT strain (SARS-CoV-2, UniProt P0DTC2 319-541)
Assay: SPR

B1: REGN10987 (antibody, V domains shown)
VH: QVQLVESGGGVVQPGRSLRLSCAASGFTFSNYAMYWVRQAPGKGLEWVAVISYDGSNKYYADSVKGRFTISRDNSKNTLYLQMNSLRTEDTAVYYCASGSDYGDYLLVYWGQGTLVTVSS
VL: QSALTQPASVSGSPGQSITISCTGTSSDVGGYNYVSWYQQHPGKAPKLMIYDVSKRPSGVSNRFSGSKSGNTASLTISGLQSEDEADYYCNSLTSISTWVFGGGTKLTVL
- Kd: 1.62 nM
